Results as given in patent US20250282876A1, “STABLE Fc FRAGMENTS, CONJUGATES, COMPOSITIONS, AND METHODS OF USE” (PURDUE RESEARCH FOUNDATION, priority 2022, published 2025).
pKd: −log10 of the molar value.

Key:
[1] = target: His-tagged human FcγR variant CD32b (human) (UniProt P31994); assay: BLI (Octet HTX), His-tagged FcγR on anti-Penta-HIS biosensors, Fc in solution, 1:1 fit
[2] = target: His-tagged human FcγR variant CD32b (human) (UniProt P31994); assay: BLI (Octet HTX), His-tagged FcγR on anti-Penta-HIS biosensors, 1:1 fit; * denotes weak binding/inaccurate KD

pKd [1]	pKd [2]	Substance
8.87	–	IgG1-CH2-CH3-DLE mutant (Ser239Asp/Ala330Leu/Ile332Glu), monomeric Fc fragment (from UniProt P0DOX5 218-449)
–	5.42	IgG1-CH2-CH3-WT, wild-type Fc region of human IgG1 (from UniProt P0DOX5 218-449)
